Target: Fluorescein-labeled ATS-FL Q150C variant (Plasmodium falciparum)
Assay: fluorescence polarisation

PFI1780w fragment spanning residues 80-280 (PHISTc-type domain) (domain or fragment)
Kd: 150 µM

From publication PMC3293552
